Laboratory results as given in the supplement of paper PMC12042874.
± gives the uncertainty stated by the source.

Experiment: amyloid nucleation score (Sup35N fusion, yeast selection) (log enrichment); library NNK3; higher = more nucleation; inactive = no reads after selection
Procedure, shortened: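 Peptides of 20 random codons fused to Sup35N were expressed in psi-negative yeast, induced 24 hours with 100 μM copper sulfate, then grown 7 days at 30°C on medium lacking adenine and uracil. Input and output plasmid inserts were Illumina-sequenced. Nucleation score is the DiMSum log enrichment of output over input reads, centred on the mode score of non-aggregating sequences, excluding sequences with under 100 input reads. Random libraries had three technical output replicates.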
For DLMTMSYRLMIIFLVDTWPR, the amyloid nucleation score was “inactive”. With DLPSMSIVIVIQKLYARVNR the amyloid nucleation score was “inactive”. With DLSTTLINPIEEQPYHFAVP the amyloid nucleation score was “inactive”. With DLSVYYVLLFVCDGL the amyloid nucleation score was -1.35 ± 1.8. For DLVEVIYSVTSYYPNYLRAK, the amyloid nucleation score was “inactive”. With DLVMDFQ the amyloid nucleation score was “inactive”. With DLVPVIHGIYWAG the amyloid nucleation score was “inactive”. In the case of DLVTSTGYSGVNAVSDIEDF, the amyloid nucleation score is reported as “inactive”. For DLVYHIEDMFGSMR, the amyloid nucleation score was 0.547 ± 0.22. In the case of DMHGRSNNLW, the amyloid nucleation score is reported as “inactive”. With DMINSGQISDHVLD the amyloid nucleation score was “inactive”. In the case of DMKNWPKDYQ, the amyloid nucleation score is reported as “inactive”. In the case of DMLFDQGLSCNGLI, the amyloid nucleation score is reported as “inactive”. In the case of DMVSRSSCSDL, the amyloid nucleation score is reported as “inactive”. In the case of DNSVALIDYSWAVTRI, the amyloid nucleation score is reported as “inactive”. With DNWFN the amyloid nucleation score was “inactive”. With DPFRLLGEY the amyloid nucleation score was “inactive”. For DPYSDVQDKDTSDAGYASRV, the amyloid nucleation score was “inactive”. For DQRLFFGHGGFDAVSW, the amyloid nucleation score was “inactive”. For DRAGHGSV, the amyloid nucleation score was “inactive”. In the case of DRDSALWIMTVWVRGSHYTR, the amyloid nucleation score is reported as “inactive”. With DRELSFLPGYYLYARVRHKS the amyloid nucleation score was “inactive”. In the case of DRIVACKLKTGYTQGMVPLL, the amyloid nucleation score is reported as “inactive”. Work on DRLALEFVYRR yielded an amyloid nucleation score of 0.145 ± 0.44. With DRNEVLDQNVVDSEISTVLP the amyloid nucleation score was “inactive”. With DRPRQRTAFVYRQWLMYYQ the amyloid nucleation score was “inactive”. In the case of DRTMQVIIYARQRVPLKWVS, the amyloid nucleation score is reported as “inactive”. With DRVFLQPTCYITAGYGFRVM the amyloid nucleation score was “inactive”. For DRYCLWVRCLVDAFMRPVVG, the amyloid nucleation score was “inactive”. With DSDVWANAGHRLSLKMI the amyloid nucleation score was “inactive”. With DSDYGNVVWRFYRSYGCTGL the amyloid nucleation score was “inactive”. For DSGLCV, the amyloid nucleation score was “inactive”. In the case of DSHGYIYLCVWVRTQNPWSV, the amyloid nucleation score is reported as “inactive”. For DSIFSWSFRGFSCVN, the amyloid nucleation score was “inactive”. For DSKQNYLIRVDRLFMECGLK, the amyloid nucleation score was “inactive”. With DSLSFGVVIFLYFKPGEFLY the amyloid nucleation score was “inactive”. Substance DSLSGYSVPYWSSFMNPWTN has an amyloid nucleation score of 0.677 ± 0.24. In the case of DSLYWCSPFNGHCSDNNTQN, the amyloid nucleation score is reported as “inactive”. With DSRMF the amyloid nucleation score was “inactive”. In the case of DSVFNL, the amyloid nucleation score is reported as “inactive”. For DSVKSALRRGI, the amyloid nucleation score was -0.166 ± 0.9. DTFMDSMLYTGLSIPCKVLL showed an amyloid nucleation score of -0.116 ± 1.4. In the case of DTLYGDYQGQRYSVALMKCV, the amyloid nucleation score is reported as “inactive”. For DTPMESGTGATHLVRIVHSA, the amyloid nucleation score was “inactive”. For DTWMST, the amyloid nucleation score was “inactive”. In the case of DVANKIVSKGRS, the amyloid nucleation score is reported as “inactive”. In the case of DVDVPT, the amyloid nucleation score is reported as “inactive”. With DVFRRFAGRTLQLSPWDTTL the amyloid nucleation score was “inactive”. For DVGLAVNTSHLWSYT, the amyloid nucleation score was “inactive”. In the case of DVHWISGKSNYSDDNRCYST, the amyloid nucleation score is reported as “inactive”. With DVLHLRCREVRRDVGYVTEF the amyloid nucleation score was “inactive”. With DVSWRTPYTIKNYGSFFLIK the amyloid nucleation score was “inactive”. For DVVGLVAGIVVKLILCSHYG, the amyloid nucleation score was “inactive”. For DVVLTNVFDCML, the amyloid nucleation score was “inactive”. In the case of DVVSLGIMQKGSWSGCML, the amyloid nucleation score is reported as “inactive”. With DWHAIFTMFECNMQRGKSAR the amyloid nucleation score was 0.113 ± 0.31. With DWRMAYVSVC the amyloid nucleation score was “inactive”. With DWSPLAGRRMTSAVDGVSMD the amyloid nucleation score was “inactive”. With DWSWFK the amyloid nucleation score was “inactive”. With DWSYEKWLACSGFYGRRRL the amyloid nucleation score was “inactive”. In the case of DYCGDCMILFCTLVGYDRCT, the amyloid nucleation score is reported as 2.06 ± 0.068. For DYCLSLLWINMPHVGNIVNL, the amyloid nucleation score was “inactive”. With DYGATGHC the amyloid nucleation score was “inactive”. Substance DYNDCIKISIFLLYSPLIWC has an amyloid nucleation score of 1.79 ± 0.1. For DYTRKVHTIEGSSYYWLNFS, the amyloid nucleation score was 1.36 ± 0.078. For DYVCYLILVLEASRRNCRSS, the amyloid nucleation score was “inactive”.
